According to patent publication US20160136234A1:

Columns and labels:
Assay in all cases: cell-based or functional assay
[1] = target: T1, EphA3 (h) (human) (UniProt P29320)
T1 sequence (looked up): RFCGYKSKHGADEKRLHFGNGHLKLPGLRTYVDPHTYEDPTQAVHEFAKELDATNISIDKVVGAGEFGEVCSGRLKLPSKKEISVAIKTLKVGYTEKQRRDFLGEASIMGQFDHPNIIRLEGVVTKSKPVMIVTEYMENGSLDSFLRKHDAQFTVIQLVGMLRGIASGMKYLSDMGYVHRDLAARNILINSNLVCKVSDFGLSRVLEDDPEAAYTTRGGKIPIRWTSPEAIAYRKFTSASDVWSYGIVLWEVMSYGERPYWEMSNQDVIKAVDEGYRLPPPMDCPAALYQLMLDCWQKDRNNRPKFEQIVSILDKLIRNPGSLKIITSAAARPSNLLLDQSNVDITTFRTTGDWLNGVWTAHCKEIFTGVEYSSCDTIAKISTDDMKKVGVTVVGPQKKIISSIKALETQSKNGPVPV

[2] = target: Flt4 (h) (human) (UniProt P35916)
[3] = target: T2, GRK7 (h) (human) (UniProt Q8WTQ7)
T2 sequence (looked up): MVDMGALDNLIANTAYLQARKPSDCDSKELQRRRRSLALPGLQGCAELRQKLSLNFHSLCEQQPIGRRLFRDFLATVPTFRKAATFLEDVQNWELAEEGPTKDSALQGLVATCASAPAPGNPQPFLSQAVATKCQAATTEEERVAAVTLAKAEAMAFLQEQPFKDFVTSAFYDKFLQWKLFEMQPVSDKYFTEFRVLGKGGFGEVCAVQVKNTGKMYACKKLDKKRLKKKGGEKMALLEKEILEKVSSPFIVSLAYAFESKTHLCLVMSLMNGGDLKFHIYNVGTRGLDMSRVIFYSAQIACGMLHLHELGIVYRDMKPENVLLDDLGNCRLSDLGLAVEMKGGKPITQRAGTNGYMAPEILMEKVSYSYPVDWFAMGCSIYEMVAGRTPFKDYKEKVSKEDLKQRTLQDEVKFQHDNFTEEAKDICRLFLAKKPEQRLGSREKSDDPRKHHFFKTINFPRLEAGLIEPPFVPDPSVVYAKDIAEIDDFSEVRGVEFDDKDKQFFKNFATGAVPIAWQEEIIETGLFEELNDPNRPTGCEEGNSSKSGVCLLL

[4] = target: CDK7/cyclinH/MAT1 (h) (human) (UniProt P50613)
[5] = target: T3, SGK2 (h) (human) (UniProt Q9HBY8)
T3 sequence (looked up): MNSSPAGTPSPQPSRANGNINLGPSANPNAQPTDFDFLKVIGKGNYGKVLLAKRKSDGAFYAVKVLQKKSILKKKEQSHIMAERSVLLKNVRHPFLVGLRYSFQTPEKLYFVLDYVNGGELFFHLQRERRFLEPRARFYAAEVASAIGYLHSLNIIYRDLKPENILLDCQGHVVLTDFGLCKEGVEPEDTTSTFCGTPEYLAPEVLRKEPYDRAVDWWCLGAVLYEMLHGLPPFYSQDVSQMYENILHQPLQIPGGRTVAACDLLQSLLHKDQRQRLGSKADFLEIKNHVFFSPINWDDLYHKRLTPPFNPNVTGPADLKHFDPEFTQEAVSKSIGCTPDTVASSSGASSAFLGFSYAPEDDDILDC

[6] = target: T4, EphA5 (h) (human) (UniProt P54756)
T4 sequence (looked up): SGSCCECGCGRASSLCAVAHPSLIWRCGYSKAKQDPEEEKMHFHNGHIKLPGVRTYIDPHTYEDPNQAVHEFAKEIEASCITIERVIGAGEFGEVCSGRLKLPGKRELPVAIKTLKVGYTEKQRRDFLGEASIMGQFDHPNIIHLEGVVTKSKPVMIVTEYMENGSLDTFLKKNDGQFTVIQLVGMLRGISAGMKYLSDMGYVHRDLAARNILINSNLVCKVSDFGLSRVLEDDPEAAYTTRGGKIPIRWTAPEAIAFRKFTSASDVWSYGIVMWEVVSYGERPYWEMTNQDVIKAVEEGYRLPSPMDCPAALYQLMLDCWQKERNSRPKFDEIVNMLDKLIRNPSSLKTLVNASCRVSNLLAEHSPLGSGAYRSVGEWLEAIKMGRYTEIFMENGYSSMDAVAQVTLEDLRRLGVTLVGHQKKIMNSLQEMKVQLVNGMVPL

[7] = target: HIPK2 (h) (human) (UniProt Q9H2X6)
[8] = target: ALK (h) (human) (UniProt Q9UM73)
[9] = target: LIMK1 (h) (human) (UniProt P53667)
[10] = target: T5, NEK3 (h) (human) (UniProt P51956)
T5 sequence (looked up): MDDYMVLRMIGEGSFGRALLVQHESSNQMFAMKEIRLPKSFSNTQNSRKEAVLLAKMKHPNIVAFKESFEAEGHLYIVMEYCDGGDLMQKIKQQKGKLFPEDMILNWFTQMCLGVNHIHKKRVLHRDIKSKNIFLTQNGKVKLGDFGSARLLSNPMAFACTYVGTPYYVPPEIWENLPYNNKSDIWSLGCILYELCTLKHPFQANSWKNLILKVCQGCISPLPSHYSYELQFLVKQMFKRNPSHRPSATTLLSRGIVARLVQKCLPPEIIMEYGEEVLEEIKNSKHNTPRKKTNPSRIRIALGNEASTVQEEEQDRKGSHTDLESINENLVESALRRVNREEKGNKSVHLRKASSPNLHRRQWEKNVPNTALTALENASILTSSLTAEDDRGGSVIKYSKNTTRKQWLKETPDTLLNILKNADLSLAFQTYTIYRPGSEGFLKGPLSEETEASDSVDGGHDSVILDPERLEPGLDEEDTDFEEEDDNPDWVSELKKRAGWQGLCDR

[11] = target: T6, PhKγ2 (h) (human) (UniProt P15735)
T6 sequence (looked up): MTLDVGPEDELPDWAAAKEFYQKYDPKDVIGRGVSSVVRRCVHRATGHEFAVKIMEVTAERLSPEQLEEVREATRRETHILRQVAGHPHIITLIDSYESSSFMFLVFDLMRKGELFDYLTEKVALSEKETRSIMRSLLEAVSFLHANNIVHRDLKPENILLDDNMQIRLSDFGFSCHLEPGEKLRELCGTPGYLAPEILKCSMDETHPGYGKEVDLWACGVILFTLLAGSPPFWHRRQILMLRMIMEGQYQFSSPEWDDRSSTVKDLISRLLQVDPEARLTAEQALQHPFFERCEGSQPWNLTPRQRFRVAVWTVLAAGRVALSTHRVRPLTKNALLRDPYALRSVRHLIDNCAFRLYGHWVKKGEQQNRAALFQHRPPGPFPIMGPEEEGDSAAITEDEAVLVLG

Flt4 (h) (human), sequence (P35916 800-1363 limits assumed): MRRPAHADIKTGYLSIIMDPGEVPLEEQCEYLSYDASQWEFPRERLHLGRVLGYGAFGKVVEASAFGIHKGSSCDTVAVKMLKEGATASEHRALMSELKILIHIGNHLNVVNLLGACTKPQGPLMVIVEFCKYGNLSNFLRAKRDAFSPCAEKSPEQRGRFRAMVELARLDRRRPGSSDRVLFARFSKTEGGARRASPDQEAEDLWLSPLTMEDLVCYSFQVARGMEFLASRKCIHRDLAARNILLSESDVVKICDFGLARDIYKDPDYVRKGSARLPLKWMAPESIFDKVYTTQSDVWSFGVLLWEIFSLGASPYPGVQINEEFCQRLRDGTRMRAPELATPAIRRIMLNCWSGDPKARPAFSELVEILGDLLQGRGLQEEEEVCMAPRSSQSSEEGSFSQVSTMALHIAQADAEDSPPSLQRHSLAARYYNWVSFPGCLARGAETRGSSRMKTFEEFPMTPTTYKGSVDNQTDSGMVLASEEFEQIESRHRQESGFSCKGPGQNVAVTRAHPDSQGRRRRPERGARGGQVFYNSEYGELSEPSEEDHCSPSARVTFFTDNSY
CDK7/cyclinH/MAT1 (h) (human), sequence (P50613 whole entry, chain 1 of 3): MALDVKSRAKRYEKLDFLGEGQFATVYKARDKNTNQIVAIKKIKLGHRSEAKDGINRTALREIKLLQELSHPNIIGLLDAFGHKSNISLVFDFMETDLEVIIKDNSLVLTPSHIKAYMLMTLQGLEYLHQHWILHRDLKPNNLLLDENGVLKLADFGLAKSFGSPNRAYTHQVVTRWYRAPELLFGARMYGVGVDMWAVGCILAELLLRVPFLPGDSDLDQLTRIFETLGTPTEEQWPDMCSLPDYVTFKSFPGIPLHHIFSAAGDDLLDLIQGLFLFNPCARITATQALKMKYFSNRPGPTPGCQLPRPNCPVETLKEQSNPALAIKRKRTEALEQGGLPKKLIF
CDK7/cyclinH/MAT1 (h) (human), sequence (P51946 whole entry, chain 2 of 3, further chain): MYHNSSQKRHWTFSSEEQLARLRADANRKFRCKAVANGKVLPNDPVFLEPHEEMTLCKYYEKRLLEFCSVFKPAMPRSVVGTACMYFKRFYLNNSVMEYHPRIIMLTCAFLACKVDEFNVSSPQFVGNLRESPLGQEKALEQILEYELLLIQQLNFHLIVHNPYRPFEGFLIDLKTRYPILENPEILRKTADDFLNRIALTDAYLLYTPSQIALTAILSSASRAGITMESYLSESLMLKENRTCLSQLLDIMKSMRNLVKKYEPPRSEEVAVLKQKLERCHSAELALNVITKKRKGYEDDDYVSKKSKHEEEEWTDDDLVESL
CDK7/cyclinH/MAT1 (h) (human), sequence (P51948 whole entry, chain 3 of 3, further chain): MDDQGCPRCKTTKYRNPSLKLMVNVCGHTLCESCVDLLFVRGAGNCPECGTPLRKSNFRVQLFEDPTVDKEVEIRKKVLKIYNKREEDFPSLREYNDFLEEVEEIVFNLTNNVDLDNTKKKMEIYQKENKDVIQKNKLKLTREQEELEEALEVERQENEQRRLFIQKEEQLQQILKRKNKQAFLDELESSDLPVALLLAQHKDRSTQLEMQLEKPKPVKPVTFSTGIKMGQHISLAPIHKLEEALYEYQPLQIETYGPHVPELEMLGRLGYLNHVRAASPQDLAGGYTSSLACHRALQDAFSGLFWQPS

% activity at 100 µM [1]: 6%
% activity at 100 µM [2]: 83%
% activity at 100 µM [3]: 122%
% activity at 100 µM [4]: 65%
% activity at 100 µM [5]: 56%
% activity at 100 µM [6]: 18%
% activity at 100 µM [7]: 73%
% activity at 100 µM [8]: 19%
% activity at 100 µM [9]: 88%
% activity at 100 µM [10]: 92%
% activity at 100 µM [11]: 46%
Substance: MMI-0300 (peptide)
